Source: paper PMC11169542, “A probe for NIR-II imaging and multimodal analysis of early Alzheimer’s disease by targeting CTGF” (Nature Communications, 2024)
Ends that are not written are not given here.

Assays:
[1] = ICP-MS of Au in whole brains of DGC-injected mice; assay type: in vivo, APP/PS1 and WT mice; settings: DGC-injected 3-month-old APP/PS1 mice vs WT, n = 3
Procedure: SH-SY5Y cell, maybe resulting in a similar perception of fluorescence intensity.
Reviewer 1: The ICP-MS of the whole brains from DGC-treated normal or APP/PS1 mice should be quantified, not only brain sections.
NIR-II imaging in Fig. 4 were frozen grinded and digested, and the content of Au in the whole brain was measured by ICP-MS. […]
which was consistent with the results of the NIR -II imaging.
Figure R7. The Au content in brains of DGC -injected 3-month-old APP/PS1 mice and the age- […]
hippo? Is there any experiment or literature to support the content of CTGF at different positions in different periods?
Response: According to previous reports, the expression pattern of CTGF was slightly different in several AD mouse models. The homing of DAG peptide was mainly seen in the cortex of the Tg2576 mice and in the hippocampus of the hAPP-J20 mice (Nat.
Commun. 2017, 8, 1403). A marked increase of CTGF levels in the brains of APP/PS1 transgenic mice were also observed, and is mainly located in the cortical (Mol.
(1 picture or pasted object on this page, not shown here)

SH-SY5Y cells = test: Cytotoxicity of DGC (CCK-8); assay type: cell-based; parameters: key to Cell viability: viability relative to control cells (control = 1); settings: for Cell viability: 24 h, CCK-8, normalized to control
Procedure: U87MG, SH-SY5Y, and CTX TNA2 cells were seeded into 96-well plates at a density of 5 × 10^3 cells per well and were incubated at 37 °C for 24 h. […] Next, 10 µL of a colorimetric Cell Counting Kit (CCK-8) reagent diluted with 100 µL medium was added to each well, and incubated for 30 min, The absorbance at 450 nm was measured using a microplate reader (Molecular Devices, San Jose, CA, USA). The relative viability was normalized to control cells. The experiment was performed in triplicates.

CTGF [2] = target: T1, CTGF (Mus musculus, UniProt P29268); test: Ex vivo NIR-II imaging of perfused brains after DGC injection; assay type: in vivo, APP/PS1 mice; settings: 20 mg/kg i.v., saline perfusion, relative to 1 month
T1 construct: brain sections of the age-matched wild-type C57BL/6J mice were used as controls; from tissue; host or cells: brain of APP/PS1 transgenic and wild-type C57BL/6J mice (sections, living animal, perfused isolated brain)
T1 sequence (P29268 26-348): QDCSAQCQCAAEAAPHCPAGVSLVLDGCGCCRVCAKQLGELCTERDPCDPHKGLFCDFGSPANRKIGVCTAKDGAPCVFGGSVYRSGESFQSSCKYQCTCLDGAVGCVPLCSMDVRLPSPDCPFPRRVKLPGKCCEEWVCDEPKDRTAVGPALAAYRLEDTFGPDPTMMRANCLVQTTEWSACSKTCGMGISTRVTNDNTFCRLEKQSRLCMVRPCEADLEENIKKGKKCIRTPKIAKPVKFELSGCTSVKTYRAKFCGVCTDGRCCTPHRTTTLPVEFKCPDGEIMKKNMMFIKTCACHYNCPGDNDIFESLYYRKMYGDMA
Procedure: Mice were then perfused intracardially with saline and 4% PFA, and major organs (including the brain, heart, liver, spleen, lung, and kidney were isolated. The dissociated brains were performed NIR-II imaging ex vivo using the same method as in vivo imaging (n = 3). All isolated organs were also imaged by the NIR-II imaging system (λ ex = 808 nm, 1000 nm longpass (LP) filter (Edmund Optics)). And then, the brains were kept in 4% PFA overnight and embedded with paraffin. Sections with 5-μm thickness were cut and analyzed by immunostaining with antibodies to CTGF (dilution 1: 50, Abcam, Cat#ab6992), GFAP (dilution 1:100, Proteintech, Cat#16825-1-AP), CD31 (dilution 1:200, Beyotime, Cat#AF6408), Neun (dilution 1:300, abcam, Cat# ab177487), and Iba 1 (dilution 1:50, Beyotime, Cat# AF7143), respectively.

CTGF [3] = test: Chromogenic DAB oxidation in DGC-labelled cells; assay type: cell-based; settings: 40 μM DGC 4 °C overnight + DAB, Image Pro Plus
Procedure: To observe accurately the expression level of CTGF in cells with the naked eye, we optimized the conditions for labeling U87MG, SH-SY5Y, and CTX TNA2 cells stained with DGC. According to the study, the optimal incubation concentration of DGC (40 μM) was used to determine the optimal culture conditions using the DAB Horseradish Peroxidase Color Development Kit. After the cells were co-stained by DGC at 4 °C overnight, a DAB chromogenic agent was added to the cells. Since DGC can label CTGF proteins on the cells, when DAB chromogenic is added, DGC on the cells can catalyze DAB to produce an insoluble brown precipitate to attach to the cells.

In the case of “DGC: CTGF-targeting peptide-coated gold nanocluster: one Au26 gold nanocluster coated by eight DAG cyclic peptides, NIR-II and red fluorescence (CDAGRKQKC; also: cyclic peptide, ring not given here, eight peptides on one Au26 nanocluster via Cys Au-S bonds)”, the “Au content in whole brain, APP/PS1 vs age-matched WT” value [1] is reported as “more than twice”, the Cell viability (SH-SY5Y cells; 5 μM (Au content), replicate 1) is reported as 1.078 and the Cell viability (SH-SY5Y cells; 5 μM (Au content), replicate 2) is reported as 1.039. It also gave a Cell viability (SH-SY5Y cells; 5 μM (Au content), replicate 3) of 1.074, a Cell viability (SH-SY5Y cells; 10 μM (Au content), replicate 1) of 0.9372 and a Cell viability (SH-SY5Y cells; 10 μM (Au content), replicate 2) of 1.045. The Cell viability (SH-SY5Y cells; 10 μM (Au content), replicate 3) was 1.038, the Cell viability (SH-SY5Y cells; 20 μM (Au content), replicate 1) was 1.029 and the Cell viability (SH-SY5Y cells; 20 μM (Au content), replicate 2) was 1.021. It also gave a Cell viability (SH-SY5Y cells; 20 μM (Au content), replicate 3) of 1.039, a Cell viability (SH-SY5Y cells; 50 μM (Au content), replicate 1) of 1.012 and a Cell viability (SH-SY5Y cells; 50 μM (Au content), replicate 2) of 1.009. It also gave a Cell viability (SH-SY5Y cells; 50 μM (Au content), replicate 3) of 1.025, a Cell viability (SH-SY5Y cells; 100 μM (Au content), replicate 1) of 0.9429 and a Cell viability (SH-SY5Y cells; 100 μM (Au content), replicate 2) of 0.9751. For the same substance, the Cell viability (SH-SY5Y cells; 100 μM (Au content), replicate 3) was 1.036, the Cell viability (SH-SY5Y cells; 200 μM (Au content), replicate 1) was 0.977 and the Cell viability (SH-SY5Y cells; 200 μM (Au content), replicate 2) was 1.039. It also gave a Cell viability (SH-SY5Y cells; 200 μM (Au content), replicate 3) of 0.9912, a Cell viability (SH-SY5Y cells; 500 μM (Au content), replicate 1) of 0.9817 and a Cell viability (SH-SY5Y cells; 500 μM (Au content), replicate 2) of 0.9959. For the same substance, the Cell viability (SH-SY5Y cells; 500 μM (Au content), replicate 3) was 1.057, the cytotoxicity (SH-SY5Y cells; DGC incubation 24 h, CCK-8) was “did not cause any obvious cytotoxicity” and the “ex vivo NIR-II fluorescence (FL) intensity in brain” value (from here on “ex vivo NIR-II fluorescence”) (CTGF [2]; 1-month-old APP/PS1 mice, brain 1) was 1. The “ex vivo NIR-II fluorescence” value (CTGF [2]; 1-month-old APP/PS1 mice, brain 2) was 1, the “ex vivo NIR-II fluorescence” value (CTGF [2]; 1-month-old APP/PS1 mice, brain 3) was 1 and the “ex vivo NIR-II fluorescence” value (CTGF [2]; 2-month-old APP/PS1 mice, brain 1) was 1.473. For the same substance, the “ex vivo NIR-II fluorescence” value (CTGF [2]; 2-month-old APP/PS1 mice, brain 2) was 1.458, the “ex vivo NIR-II fluorescence” value (CTGF [2]; 2-month-old APP/PS1 mice, brain 3) was 1.501 and the “ex vivo NIR-II fluorescence” value (CTGF [2]; 3-month-old APP/PS1 mice, brain 1) was 1.722. For the same substance, the “ex vivo NIR-II fluorescence” value (CTGF [2]; 3-month-old APP/PS1 mice, brain 2) was 1.714, the “ex vivo NIR-II fluorescence” value (CTGF [2]; 3-month-old APP/PS1 mice, brain 3) was 1.766 and the “ex vivo NIR-II fluorescence” value (CTGF [2]; 6-month-old APP/PS1 mice, brain 1) was 2.766. For the same substance, the “ex vivo NIR-II fluorescence” value (CTGF [2]; 6-month-old APP/PS1 mice, brain 2) was 2.744, the “ex vivo NIR-II fluorescence” value (CTGF [2]; 6-month-old APP/PS1 mice, brain 3) was 2.849 and the “ex vivo NIR-II fluorescence” value (CTGF [2]; 9-month-old APP/PS1 mice, brain 1) was 3.728. The “ex vivo NIR-II fluorescence” value (CTGF [2]; 9-month-old APP/PS1 mice, brain 2) was 3.62, the “ex vivo NIR-II fluorescence” value (CTGF [2]; 9-month-old APP/PS1 mice, brain 3) was 3.948 and the “DAB chromogenic imaging intensity” value (CTGF [3]; CTX TNA2 cells, replicate 1) was 0.0128. The “DAB chromogenic imaging intensity” value (CTGF [3]; CTX TNA2 cells, replicate 2) was 0.01748, the “DAB chromogenic imaging intensity” value (CTGF [3]; CTX TNA2 cells, replicate 3) was 0.0191 and the “DAB chromogenic imaging intensity” value (CTGF [3]; SH-SY5Y cells, replicate 1) was 0.04369. The “DAB chromogenic imaging intensity” value (CTGF [3]; SH-SY5Y cells, replicate 2) was 0.03714, the “DAB chromogenic imaging intensity” value (CTGF [3]; SH-SY5Y cells, replicate 3) was 0.0465 and the “DAB chromogenic imaging intensity” value (CTGF [3]; U87MG cells, replicate 1) was 0.1444. The “DAB chromogenic imaging intensity” value (CTGF [3]; U87MG cells, replicate 2) was 0.1042 and the “DAB chromogenic imaging intensity” value (CTGF [3]; U87MG cells, replicate 3) was 0.1075.
